Key:
p53 [1] = target: T1, p53 (Homo sapiens, UniProt P04637); experiment: Transient luciferase reporter assay of p53 transactivation function in Saos-2 cells; assay type: cell-based; conditions: for effect on ASPP stimulation of p53 transactivation function on the Bax promoter: co-expressed with p53 and ASPP1 or ASPP2
T1 construct: expressed in transfected cells
Description: (§1) The amount of luciferase expression was determined as previously described in Samuels-Lev et al. (Mol. Cell 8:781-94, 2001, herein incorporated by reference).
(§2) The amount of transactivation function was determined as described in Example 4.
(§3) To determine the amount of protein expression, Saos-2 cells (5×10^5) were plated 24 hours prior to transfection in 6 cm dishes. […] To determine the amount of gene activation, after transfection, the cells were lysed in Reporter Lysis Buffer 16-24 hours post-wash and assayed using the Luciferase Assay kit (Promega, Wis.). The fold activation of a particular reporter was determined by the activity of the transfected plasmid above the activity of vector alone.
(§4) The expression level of transfected proteins was detected using 40 μg of the respective lysates using the antibodies V5, DX.5410, DO1, 4A4 and p73. […] Results were derived from at least three independent experiments.

p53 [2] = experiment: as above; assay type: cell-based; conditions: expressed without p53, FIG. 8B
Description: as §1, §2, §3, §4

Saos-2 cells = experiment: Apoptosis by flow cytometry (CD20-gated, sub-G1 DNA content) in transfected Saos-2 cells; assay type: cell-based
Description: Apoptosis was identified by the expression of the co-transfected cell surface marker CD20, as described in Samuels-Lev et al. (Mol. Cell 8:781-94, 2001, herein incorporated by reference).
The number of apoptotic cells was determined using the methods described in Example 6.
Cells (10^6) were plated 24-48 hours prior to transfection in 10 cm plates. Cells were grown in DMEM supplemented with 10% FCS and transfected with 2 μg of a plasmid expressing CD20 as a transfection marker. Increasing amounts of ASPP1 and ASPP2 were transfected (7.5 μg, 15 μg and 25 μg). 36 hours after the transfection, both attached and floating cells were harvested and analysed using flow cytometry as follows. The transfected cells were gated based on the expression of CD20. The percentage of apoptotic cells was measured by the accumulation of cells with a sub-G1 DNA content derived from at least three individual experiments.
The transfected cells were analyzed by flow cytometry as described in Example 6.

U2OS and MCF7 cells = experiment: Apoptosis by FACS in U2OS and MCF7 cells expressing wild-type p53, with or without cisplatin; assay type: cell-based, human; conditions: for effect on cisplatin-induced apoptosis: transfected before cisplatin, FIGS. 7B and 7D
Description: The transfected cells were gated, and the apoptotic cells identified by FACS as described in Example 6.
Before exposure to cisplatin (5 and 3 μg/ml respectively), U2OS and MCF7 cells were transfected with plasmids encoding HPV16 E6, iASPP, or 53BP2. Thirty hours later, cells were harvested and analysed as above.
Fragments from the 5′ ends of ASPP1, ASPP2 and iASPP cDNA were cloned into a mammalian expression vector in an antisense orientation and their ability to inhibit the protein synthesis determined in vitro. The antisense nucleic acid molecules were amplified by PCR on the respective plasmid clones using primers spanning the following nucleotide regions (relative to the initial ATG): −74 to 923; −253 to 839 and −37 to 536 for ASPP1, ASPP2 and iASPP respectively. The amplified segments were purified with the QIAquick PCR purification kit (QIAGEN) and ligated in the pcDNA3.1/V5-His TOPO vector (Invitrogen) according to the manufacturer's instructions.
U2OS and MCF-7 cells were transfected with the various expression plasmids prior to the treatment with cisplatin and analyzed using FACS as described above.
To determine the anti-apoptotic role of iASPP, both U2OS and MCF-7 cells were transfected with antisense iASPP and cells analyzed as described above. […] A small increase in apoptotic cells was consistently detected (FIG. 7D).

p53 [3] = target: T1, p53; experiment: Co-immunoprecipitation with p53 in transfected Saos-2 cells; assay type: binding
Description: The cells were lysed in NP40 lysis buffer and 1000 μg of lysate immunoprecipitated with antibodies to iASPP bound to Protein G beads.

MCF-7 cells = experiment: Cellular resistance to the cytotoxic effect of cisplatin in MCF-7 cells; assay type: cell-based, human; conditions: iASPP-expressing versus non-expressing cells, FIG. 10B
Excerpt: Many chemotherapy drugs are DNA-damage agents and induce apoptosis via p53-dependent pathway. […] The cellular resistance to the cytotoxic effect of cisplatin were compared between iASPP-expressing and non-expressing iASPP MCF-7 cells. Expression of iASPP enhanced the cellular resistance by about 2.5 fold (FIG. 10B). Such an increase in cellular resistance to cisplatin is significant with respect to cancer treatment.

[4] = system: rat embryo fibroblasts (REFs); experiment: Transformation of rat embryo fibroblasts with E7; assay type: cell-based; conditions: co-transfected with E7, FIG. 10A

T1 sequence (P04637 whole entry): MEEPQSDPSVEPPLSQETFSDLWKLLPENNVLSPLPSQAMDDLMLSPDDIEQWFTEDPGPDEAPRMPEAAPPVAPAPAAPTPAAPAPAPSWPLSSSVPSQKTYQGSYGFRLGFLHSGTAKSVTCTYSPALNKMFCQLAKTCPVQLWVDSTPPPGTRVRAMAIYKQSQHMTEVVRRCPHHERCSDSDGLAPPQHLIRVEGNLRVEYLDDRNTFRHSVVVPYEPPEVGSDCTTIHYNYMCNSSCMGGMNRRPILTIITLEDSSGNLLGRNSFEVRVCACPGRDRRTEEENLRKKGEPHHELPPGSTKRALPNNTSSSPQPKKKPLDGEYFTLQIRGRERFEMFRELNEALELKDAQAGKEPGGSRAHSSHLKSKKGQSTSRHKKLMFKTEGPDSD

B1: Ikb: the inhibitor of p65 Rel A (protein, UniProt P25963 1-317, looked up)
NF-kappa-B inhibitor alpha: MFQAAERPQEWAMEGPRDGLKKERLLDDRHDSGLDSMKDEEYEQMVKELQEIRLEPQEVPRGSEPWKQQLTEDGDSFLHLAIIHEEKALTMEVIRQVKGDLAFLNFQNNLQQTPLHLAVITNQPEIAEALLGAGCDPELRDFRGNTPLHLACEQGCLASVGVLTQSCTTPHLHSILKATNYNGHTCLHLASIHGYLGIVELLVSLGADVNAQEPCNGRTALHLAVDLQNPDLVSLLLKCGADVNRVTYQGYSPYQLTWGRPSTRIQQQLGQLTLENLQMLPESEDEESYDTESEFTEFTEDELPYDDCVFGGQRLTL
p53 [1]; 50 ng co-expressed with p53
  inhibition of the transactivation function of p53 on the Bax promoter: very little inhibition
p53 [1]; FIG. 8C, Ikb even in the presence of ASPP2
  transactivation function of p53 on the mdm2 promoter: hardly decreased
p53 [1]
  effect on ASPP stimulation of p53 transactivation function on the Bax promoter: significantly decreased ASPP2-mediated stimulation
p53 [2]
  inhibition of Bax promoter reporter activity: did not show any detectable inhibition
Saos-2 cells; Example 11, p53+ASPP2 30%
  percentage of apoptotic cells, co-expressed with p53 and ASPP2: 16%
Saos-2 cells; Example 11, p53 alone […]%
  percentage of apoptotic cells, co-expressed with p53: 11%
Saos-2 cells; Example 11, vector alone 4.6%
  percentage of apoptotic cells, expressed alone: 7.2%

B2: ASPP2/53BP2: 528 amino acid C-terminal polypeptide, amino acids 600-1128 of ASPP2 (protein)
chain: KPQTVAASSIYSMYTQQQAPGKNFQQAVQSALTKTHTRGPHFSSVYGKPVIAAAQNQQQHPENIYSNSQGKPGSPEPETEPVSSVQENHENERIPRPLSPTKLLPFLSNPYRNQSDADLEALRKKLSNAPRPLKKRSSITEPEGPNGPNIQKLLYQRTTIAAMETISVPSYPSKSASVTASSESPVEIQNPYLHVEPEKEVVSLVPESLSPEDVGNASTENSDMPAPSPGLDYEPEGVPDNSPNLQNNPEEPNPEAPHVLDVYLEEYPPYPPPPYPSGEPEGPGEDSVSMRPPEITGQVSLPPGKRTNLRKTGSERIAHGMRVKFNPLALLLDSSLEGEFDLVQRIIYEVDDPSLPNDEGITALHNAVCAGHTEIVKFLVQFGVNVNAADSDGWTPLHCAASCNNVQVCKFLVESGAAVFAMTYSDMQTAADKCEEMEEGYTQCSQFLYGVQEKMGIMNKGVIYALWDYEPQNDDELPMKEGDCMTIIHREDEDEIEWWWARLNDKEGYVPRNLLGLYPRIKPRQRSLA
modifications: left off: small tags and cut ends
notes: 528 amino acid C-terminal polypeptide, amino acids 600-1128 of ASPP2
p53 [1]; co-expressed with p53, FIG. 3
  reduction of the transactivation function of p53: about 50%
p53 [1]
  effect on ASPP stimulation of p53 transactivation function on the Bax promoter: inhibited ASPP2 stimulation
p53 [1]; co-expression with p53
  stimulation of p21waf1 and PG synthetic promoters: slight stimulation
  stimulation of the promoter activity of mdm2 and cyclin G: failed to stimulate
Saos-2 cells; p53, ASPP2 and ASPP2/53BP2 all co-expressed, FIG. 4C
  apoptotic cells: 30%
U2OS and MCF7 cells
  effect on cisplatin-induced apoptosis: inhibited cisplatin-induced apoptosis to a similar extent as E6

B3: ASPP2/bBP2: 1005 amino acid polypeptide, amino acids 123-1128 of ASPP2 (protein)
chain: RMDLTLAELQEMASRQQQQIEAQQQLLATKEQRLKFLKQQDQRQQQQVAEQEKLKRLKEIAENQEAKLKKVRALKGHVEQKRLSNGKLVEEIEQMNNLFQQKQRELVLAVSKVEELTRQLEMLKNGRIDSHHDNQSAVAELDRLYKELQLRNKLNQEQNAKLQQQRECLNKRNSEVAVMDKRVNELRDRLWKKKAALQQKENLPVSSDGNLPQQAASAPSRVAAVGPYIQSSTMPRMPSRPELLVKPALPDGSLVIQASEGPMKIQTLPNMRSGAASQTKGSKIHPVGPDWSPSNADLFPSQGSASVPQSTGNALDQVDDGEVPLREKEKKVRPFSMFDAVDQSNAPPSFGTLRKNQSSEDILRDAQVANKNVAKVPPPVPTKPKQINLPYFGQTNQPPSDIKPDGSSQQLSTVVPSMGTKPKPAGQQPRVLLSPSIPSVGQDQTLSPGSKQESPPAAAVRPFTPQPSKDTLLPPFRKPQTVAASSIYSMYTQQQAPGKNFQQAVQSALTKTHTRGPHFSSVYGKPVIAAAQNQQQHPENIYSNSQGKPGSPEPETEPVSSVQENHENERIPRPLSPTKLLPFLSNPYRNQSDADLEALRKKLSNAPRPLKKRSSITEPEGPNGPNIQKLLYQRTTIAAMETISVPSYPSKSASVTASSESPVEIQNPYLHVEPEKEVVSLVPESLSPEDVGNASTENSDMPAPSPGLDYEPEGVPDNSPNLQNNPEEPNPEAPHVLDVYLEEYPPYPPPPYPSGEPEGPGEDSVSMRPPEITGQVSLPPGKRTNLRKTGSERIAHGMRVKFNPLALLLDSSLEGEFDLVQRIIYEVDDPSLPNDEGITALHNAVCAGHTEIVKFLVQFGVNVNAADSDGWTPLHCAASCNNVQVCKFLVESGAAVFAMTYSDMQTAADKCEEMEEGYTQCSQFLYGVQEKMGIMNKGVIYALWDYEPQNDDELPMKEGDCMTIIHREDEDEIEWWWARLNDKEGYVPRNLLGLYPRIKPRQRSLA
p53 [1]; versions of ASPP2 co-expressed with p53, FIG. 3
  stimulation of the transactivation function of p53: about 2 fold
p53 [3]
  interaction with p53 by immunoprecipitation and western blot: interacted with p53 in vivo

B4: iASPP: Inhibitor of Apoptosis Stimulating Proteins, p65 rel A binding protein of 315 amino acids, SEQ ID NO: 6 (protein)
chain: MWMKDPVARPLSPTRLQPALPPEAQSVPELEEVARVLAEIPRPLKRRGSMEQAPAVALPPTHKKQYQQIISRLFHRHGGPGPGGRSQSCPPSLRDLRPGQGPLLLPHQLPFHRPAPSQSSPPEQPQSMEMRSVLRKAGSPRKARRARLNPLVLLLDAALTGELEVVQQAVKEMNDPSQPNEEGITALHNAICGANYSIVDFLITAGANVNSPDSHGWTPLHCAASCNDTVICMALVQHGAAIFATTLSDGATAFEKCDPYREGYADCATYLADVEQSMGLMNSGAVYALWDYSAEFGDELSFREGESVTVLRRDGPEETDWWWAALHGQEGYVPRNYFGLFPRVKPQRSKV
modifications: homo sapiens
p53 [1]
  effect on ASPP stimulation of p53 transactivation function on the Bax promoter: decreased or eliminated the ability
Saos-2 cells; co-expressed with p53
  effect on the apoptotic function of wild type p53: small inhibitory effect
Saos-2 cells; co-expressed with p53 and ASPP1 or ASPP2
  effect on the enhancement of p53 apoptotic function by ASPP1 and ASPP2: decreased or inhibited the enhanced apoptotic function of p53
Saos-2 cells; no p53 co-expressed
  apoptosis when expressed alone: did not induce apoptosis on its own
U2OS and MCF7 cells
  effect on cisplatin-induced apoptosis: inhibited cisplatin-induced apoptosis to a similar extent as E6
MCF-7 cells
  enhancement of cellular resistance to cisplatin: about 2.5 fold
[4]
  transforming function of E7: enhanced the transforming function of E7 significantly
p53 [3]
  interaction with p53 by immunoprecipitation and western blot: interacted with p53

B5: E6: viral oncoprotein from human papilloma virus that binds p53 and targets it for degradation (protein, UniProt P03126 1-158, looked up)
Protein E6: MHQKRTAMFQDPQERPRKLPQLCTELQTTIHDIILECVYCKQQLLRREVYDFAFRDLCIVYRDGNPYAVCDKCLKFYSKISEYRHYCYSLYGTTLEQQYNKPLCDLLIRCINCQKPLCPEEKQRHLDKKQRFHNIRGRWTGRCMSCCRSSRTRRETQL
U2OS and MCF7 cells; cisplatin 5 and 3 μg/ml (U2OS, MCF7), thirty hours
  percentage of transfected cells that die of apoptosis after cisplatin: below 15%
U2OS and MCF7 cells; co-expression
  effect on apoptosis induced by ASPP1 or ASPP2: inhibited the apoptosis induced by ASPP1 or ASPP2
U2OS and MCF7 cells
  effect on cisplatin-induced apoptosis: reduced the percentage of apoptotic cells to half
